Measurements from the supplement of paper PMC10126150.
± gives the standard deviation of the averaged measurements.

Test system: ATP
Assay: switch fluorescence ratio, 500 uM ATP over buffer (Cy3 cluster intensity, sum of 5 cycles each) (fold (ratio)); higher = stronger signal-on switching upon ATP binding; sequences stand for … in TCGTCGGCAGCGTCAGATGTGTATAAGAGACAGTTTTTTTTTTTTTTTTTTTTTTTTT…TC
Conditions: aptamer strand: ATP DNA aptamer (quencher-CACCTGGGGGAGTATTGCGGAGGAAGG + anchor), 100 nM annealed; ATP concentration: 500 uM
Procedure, shortened: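 Imaging in selection buffer was followed by imaging after 15 min with 500 uM ATP at 22 °C, for Cy3-labelled switching-strand clusters annealed to 100 nM quencher-labelled ATP aptamer on a modified Illumina MiSeq flow-cell. Five of these buffer/ATP cycles ran, separated by NaOH stripping and re-annealing. The fluorescence ratio per cluster is summed target-cycle over summed buffer-cycle Cy3 intensity, averaged per switch-domain sequence; clusters outside 100-1000 RFU were removed.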
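Note: ATP exposure 15 min at 22 °C before imaging.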

Row | Sequence | switch fluorescence ratio
1 | CCCCTGGCAT | 1.42 ± 0.022
2 | CCCGCGGTGT | 2.41 ± 0.19
3 | CCCGCTAGTG | 1.54 ± 0.12
4 | CCCGGAAGGT | 1.041 ± 0.0048
5 | CCCGGGGGGT | 1.56 ± 1
6 | CCCGGGGGTT | 1.14 ± 0.13
7 | CCCGGGTAGG | 1.041 ± 0.0026
8 | CCCGTATACA | 1.206 ± 0.0072
9 | CCCTATCAAT | 1.1 ± 0.038
10 | CCCTATTTTT | 1.01 ± 0.035
11 | CCCTCTATTC | 1.06 ± 0.03
12 | CCCTGAGGGT | 1.01 ± 0.023
13 | CCCTTATGGT | 0.9932 ± 0.0086
14 | CCCTTGGATA | 0.993 ± 0.021
15 | CCCTTGTCCG | 1.05 ± 0.037
16 | CCCTTTTGGG | 0.997 ± 0.035
17 | CCGAACGTCG | 1.88 ± 0.27
18 | CCGAACTGAT | 1.13 ± 0.027
19 | CCGAAGGATT | 1.022 ± 0.0044
20 | CCGACGGAGG | 1.99 ± 1.2
21 | CCGAGAGAGC | 1.13 ± 0.04
22 | CCGAGAGGGC | 1.15 ± 0.092
23 | CCGAGGAAGC | 1.34 ± 0.14
24 | CCGAGTTAAG | 1.08 ± 0.012
25 | CCGATGGTCT | 1.25 ± 0.072

Row | Sequence | switch fluorescence ratio
26 | CCGATGTGGT | 1.57 ± 0.039
27 | CCGATGTGTC | 2.42 ± 0.52
28 | CCGCCCGGAT | 1.14 ± 0.018
29 | CCGCGAGCTA | 4.52 ± 1.1
30 | CCGCGGCTTG | 1.12 ± 0.053
31 | CCGCTGGATG | 1.202 ± 0.011
32 | CCGCTGGGGG | 1.177 ± 0.0036
33 | CCGCTGGTGT | 3.59 ± 0.29
34 | CCGCTTGAGA | 1.08 ± 0.025
35 | CCGGACACGA | 1.39 ± 0.042
36 | CCGGACAGGT | 1.13 ± 0.023
37 | CCGGAGAGGG | 1.7 ± 0.61
38 | CCGGAGATCC | 2.06 ± 0.22
39 | CCGGATATGT | 1.08 ± 0.046
40 | CCGGATGGGT | 1.012 ± 0.0037
41 | CCGGATGGTG | 1.017 ± 0.0044
42 | CCGGCGGATT | 1.08 ± 0.056
43 | CCGGGAAAGC | 1.18 ± 0.25
44 | CCGGGAGGGG | 1.11 ± 0.12
45 | CCGGGAGTCG | 1.06 ± 0.017
46 | CCGGGCAAGA | 5.5 ± 1.4
47 | CCGGGCCGAA | 1.05 ± 0.017
48 | CCGGGGGAAT | 1.13 ± 0.16
49 | CCGGGGGTTT | 1.036 ± 0.0054
50 | CCGGGGTATT | 1.07 ± 0.033

Row | Sequence | switch fluorescence ratio
51 | CCGGGGTGTA | 1.32 ± 0.36
52 | CCGGGGTTAG | 1.38 ± 0.42
53 | CCGGGGTTTT | 1.11 ± 0.22
54 | CCGGGTATGG | 1.02 ± 0.016
55 | CCGGGTGGGG | 1.04 ± 0.03
56 | CCGGTAGGCC | 0.978 ± 0.033
57 | CCGGTGGCTG | 1 ± 0.033
58 | CCGGTTGTGA | 1.177 ± 0.0083
59 | CCGGTTTCGT | 1.26 ± 0.26
60 | CCGTAAGAAT | 1.37 ± 0.055
61 | CCGTACGGGG | 1.029 ± 0.0055
62 | CCGTACGTCA | 1.77 ± 0.041
63 | CCGTATATGT | 1.19 ± 0.029
64 | CCGTCAGAGT | 1.09 ± 0.014
65 | CCGTCAGGTT | 1.012 ± 0.005
66 | CCGTCGCTTA | 2.36 ± 0.37
67 | CCGTGAGAAT | 1.07 ± 0.018
68 | CCGTGCCGTT | 0.948 ± 0.024
69 | CCGTGCTTTT | 1.08 ± 0.047
70 | CCGTGGGGAT | 1.24 ± 0.26
71 | CCGTTATTAG | 1.3518 ± 0.0007
72 | CCGTTCAGGG | 1.001 ± 0.0045
73 | CCGTTGAAAT | 1.22 ± 0.011
74 | CCGTTGAGTG | 0.995 ± 0.024
75 | CCGTTGATGT | 1.014 ± 0.002

Row | Sequence | switch fluorescence ratio
76 | CCGTTGGATT | 0.983 ± 0.01
77 | CCGTTGGTTT | 0.9937 ± 0.0088
78 | CCGTTGTCCA | 1.02 ± 0.032
79 | CCGTTTGGTT | 0.995 ± 0.064
80 | CCTAAAAGTT | 1.01 ± 0.05
81 | CCTAAAGTTT | 0.983 ± 0.014
82 | CCTAACACGA | 1.11 ± 0.027
83 | CCTAATCAAC | 1.13 ± 0.034
84 | CCTAATTGAA | 0.9728 ± 0.0041
85 | CCTACAGTGA | 1.752 ± 0.015
86 | CCTACTAGAT | 1.142 ± 0.007
87 | CCTAGCCCTT | 1.05 ± 0.054
88 | CCTAGGTAAA | 0.993 ± 0.034
89 | CCTAGTTAGT | 1.02 ± 0.034
90 | CCTATATACG | 1.13 ± 0.042
91 | CCTATGAATG | 0.987 ± 0.018
92 | CCTATTACA | 1.03 ± 0.026
93 | CCTATTGGGT | 1.02 ± 0.013
94 | CCTATTTATT | 1.01 ± 0.02
95 | CCTCAGCGGA | 3.35 ± 0.42
96 | CCTCATCGAG | 1.07 ± 0.024
97 | CCTCATTCGG | 1.06 ± 0.021
98 | CCTCGATGTA | 1.08 ± 0.027
99 | CCTCGGGAAA | 1.06 ± 0.1
100 | CCTCGGTAGG | 1.02 ± 0.0051

Row | Sequence | switch fluorescence ratio
101 | CCTCTAAGTT | 1.27 ± 0.054
102 | CCTCTGGCGC | 3.9 ± 0.3
103 | CCTGAAATAT | 2.53 ± 1.7
104 | CCTGAAGTTG | 1.18 ± 0.21
105 | CCTGAGGAGA | 1.03 ± 0.015
106 | CCTGATTTGA | 0.989 ± 0.02
107 | CCTGCATTTG | 1.0933 ± 0.00019
108 | CCTGCCGTTA | 1.27 ± 0.078
109 | CCTGCTGTTC | 1.51 ± 0.09
110 | CCTGCTTTTT | 1.02 ± 0.021
111 | CCTGGACTCG | 1.02 ± 0.03
112 | CCTGGAGAGT | 1.02 ± 0.059
113 | CCTGGCCTGC | 1.078 ± 0.01
114 | CCTGGCGATG | 1.38 ± 0.053
115 | CCTGGGAAGA | 1.02 ± 0.017
116 | CCTGGGCGGT | 1.32 ± 0.031
117 | CCTGGGGGCC | 1 ± 0.013
118 | CCTGGGGGG | 1.02 ± 0.045
119 | CCTGGTACGT | 1.01 ± 0.034
120 | CCTGGTCGGC | 1.02 ± 0.035
121 | CCTGGTGGAC | 1.11 ± 0.058
122 | CCTGTATTTT | 1.011 ± 0.0077
123 | CCTGTTATGG | 1.01 ± 0.032
124 | CCTGTTCCGA | 1.19 ± 0.028
125 | CCTGTTTGTT | 0.967 ± 0.038

Row | Sequence | switch fluorescence ratio
126 | CCTTAAAAAA | 1.04 ± 0.014
127 | CCTTAGGTAT | 1.011 ± 0.0094
128 | CCTTAGTGAC | 1.36 ± 0.069
129 | CCTTAGTTTT | 0.983 ± 0.022
130 | CCTTATAGTT | 0.995 ± 0.023
131 | CCTTATCCG | 1.07 ± 0.068
132 | CCTTATGCCA | 1.09 ± 0.061
133 | CCTTATTGAA | 0.979 ± 0.021
134 | CCTTCCGTTC | 2.66 ± 0.53
135 | CCTTCCTACG | 2.36 ± 0.54
136 | CCTTCGTTGT | 2.85 ± 0.64
137 | CCTTGAACGG | 0.9606 ± 0.005
138 | CCTTGAATGG | 1.05 ± 0.005
139 | CCTTGCCGGT | 1.022 ± 0.0094
140 | CCTTGCGGGG | 1.06 ± 0.012
141 | CCTTGCGTTC | 2.68 ± 0.19
142 | CCTTGGGGAT | 1.11 ± 0.12
143 | CCTTGGGGGA | 1.14 ± 0.055
144 | CCTTGGGTTT | 1.08 ± 0.13
145 | CCTTGGTATT | 0.998 ± 0.026
146 | CCTTGTTTGG | 1.01 ± 0.011
147 | CCTTTAATGT | 1.01 ± 0.022
148 | CCTTTCGACA | 2.08 ± 0.26
149 | CCTTTCGGGA | 1.73 ± 0.87
150 | CCTTTCTATT | 0.99 ± 0.018

Row | Sequence | switch fluorescence ratio
151 | CCTTTGTATT | 1.04 ± 0.031
152 | CCTTTGTTAT | 1.052 ± 0.0082
153 | CCTTTGTTGG | 1.01 ± 0.013
154 | CCTTTTCAGC | 1.12 ± 0.025
155 | CCTTTTTATG | 1.024 ± 0.0028
156 | CCTTTTTATT | 0.9882 ± 0.0064
157 | CCTTTTTGAA | 0.986 ± 0.049
158 | CGAAAAGGCT | 1.01 ± 0.016
159 | CGAAAAGTTT | 0.994 ± 0.023
160 | CGAAAATGGT | 1.04 ± 0.13
161 | CGAAACAGCA | 1.012 ± 0.0064
162 | CGAAAGATGG | 1 ± 0.034
163 | CGAAAGATGT | 0.9857 ± 0.0025
164 | CGAAAGGAA | 1.01 ± 0.011
165 | CGAAATGCGG | 0.982 ± 0.036
166 | CGAACCGTCA | 1.08 ± 0.028
167 | CGAACCTGGA | 1.37 ± 0.076
168 | CGAACGGATG | 1.0156 ± 0.00041
169 | CGAACGGATT | 1.06 ± 0.054
170 | CGAACGGTTG | 1.0261 ± 1.1e-05
171 | CGAACGTCAG | 1.04 ± 0.012
172 | CGAACTTGTG | 1.01 ± 0.015
173 | CGAACTTTTG | 0.984 ± 0.018
174 | CGAAGATCGG | 1 ± 0.023
175 | CGAAGCGTCA | 1.081 ± 0.0014

Row | Sequence | switch fluorescence ratio
176 | CGAAGGATTG | 0.992 ± 0.015
177 | CGAAGGGAAA | 1.12 ± 0.19
178 | CGAAGGTAGG | 0.9843 ± 0.0049
179 | CGAAGTGGCC | 1.02 ± 0.016
180 | CGAATCGCCT | 1 ± 0.022
181 | CGAATGGCGT | 1.029 ± 0.0063
182 | CGAATTAGAA | 0.982 ± 0.042
183 | CGAATTTTCG | 0.976 ± 0.012
184 | CGACAAGCAG | 1.09 ± 0.026
185 | CGACAATGTA | 1.17 ± 0.018
186 | CGACATCGGA | 1.02 ± 0.017
187 | CGACCGAACA | 1.09 ± 0.014
188 | CGACCGGGGG | 1.11 ± 0.094
189 | CGACGGAAGG | 1.25 ± 0.06
190 | CGACGGTGAA | 1.09 ± 0.022
191 | CGACGTGAGT | 1.036 ± 0.0042
192 | CGACTCGACG | 1.013 ± 0.006
193 | CGACTGATAT | 1.078 ± 0.0078
194 | CGACTTTTAG | 0.959 ± 0.021
195 | CGAGAATTGT | 0.9301 ± 0.0053
196 | CGAGAGGAGG | 1.01 ± 0.02
197 | CGAGAGGAGT | 0.997 ± 0.014
198 | CGAGAGGGTG | 1.03 ± 0.02
199 | CGAGATCAAG | 0.971 ± 0.013
200 | CGAGATGGTT | 0.973 ± 0.025
